Data as given in patent US20090305281, “NOVEL INHIBITORS OF RETROVIRAL REVERSE TRANSCRIPTACE” (THE CURATORS OF THE UNIVERSITY OF MISSOURI, published 2009).

How the values were obtained:
[1] = target: T1, HIV-1 reverse transcriptase (HXB2, group M subtype B) (Human immunodeficiency virus 1, UniProt P04585 SEQ:1-560); test: inhibition; DDDP, K+ buffer; settings: tags: expressed in E. coli
Method: (§1) Reactions were assembled in reaction buffer (50 mM Tris-HCl pH 8.3, 75 mM KCl, 5 mM MgCl2, 10 mM DTT) with 30 nM primer, 45 nM template and 0.2 mM dNTPs. After annealing primer and template strands, DNA aptamers were added. Reactions were initiated by adding RT to a final concentration of 3 nM active site. […] Additional reactions included 1 μM and 3 μM where indicated. After 10 min at 37° C., reactions were quenched by addition of 2 volumes (20 μl) of gel-loading buffer (95% formamide with 0.01% bromophenol blue). For reactions assessing monovalent ion dependence, 75 mM KCl was replaced with 75 mM NaCl where indicated.

[2] = target: T1, HIV-1 reverse transcriptase (HXB2, …); test: inhibition; DDDP, K+ buffer; settings: tags: expressed in E. coli; remark: listed apart in the source
Method: FIG. 13 Sequence plasticity of stems and loops. Inhibition of RT DDDP activity by aptamer variants. Aptamer concentrations (nM) are indicated above the lanes. (A) Aptamer TKQ4 retains inhibition even though it carries a G-to-A mutation in the fourth of the 12 G's that comprise the quadruplex. […] Similar titrations were carried out in triplicate for all aptamers for which IC50 values are reported. Aptamer R1T was included in subsequent panels to provide a consistent reference baseline of inhibition. (C) RT inhibition by aptamer SN, in which quadruplex loops are replaced with hexaethylene glycol. (D) and (E), RT inhibition by aptamers carrying mutations in helical stem domain, as detailed in text.
as §1

[3] = target: T1, HIV-1 reverse transcriptase (HXB2, …); test: inhibition; DDDP, K+ buffer; p136 states not significantly different from L1; settings: tags: expressed in E. coli; hairpin + G4, T16 connector
Method: as §1

[4] = hairpin + G4, termini within quadruplex

GGGTTCGCCTGATTAGCGATACTCAGGCGTTGGGTGGGTGGG (ssDNA) [Bcut]
IC50 [1, 4]: 48 nM

CGCCTGATTAGCGATACTCAGGCGTTGGGTTTTGGGTTTTGGGTTTTGGG (ssDNA) [R4T]
IC50 ([2]; hairpin + G4): ~35 nM

CGTGATTAGCGATACTCACGTTGGGTGGGTGGGTGGG (ssDNA) [S1]
IC50 ([2]; hairpin + G4): 59 nM

B1: ZAM1 (ssDNA)
DNA: CGCCTGATTAGCGCGCGCCGCGTTTTCGCGGCGCGCGCTACTCAGGCGTTGGGTGGGTGGGTGGG
IC50 ([2]; hairpin (22 bp) + G4): 10 nM

CGCCTGACCCTTCAGGCGTTGGGTGGGTGGGTGGG (ssDNA) [S4]
IC50 ([2]; hairpin (CCCT tetraloop) + G4): 32 nM

GGGTGGGTTCGCCTGATTAGCGATACTCAGGCGTTGGGTGGG (ssDNA) [Acut]
IC50 ([1]; hairpin + G4, termini between 2nd and 3rd G triplets): 22 nM

CGCCTGATTAGCGATACTCAGGCGTTGGGCGGGCGGGCGGG (ssDNA) [R1C]
IC50 ([2]; hairpin + G4): 26 nM

CGCCTGATTAGCGATACTCAGGCGTTGGGAGGGAGGGAGGG (ssDNA) [R1A]
IC50 ([2]; hairpin + G4): 18 nM

CGCCTGATTAGCGATACTCAGGCGAAGGGTGGGTGGGTGGG (ssDNA) [L6]
IC50 ([1]; hairpin + G4, A2 connector): 13 nM

CGCCTGATTAGCGATACTCAGGCGTTGGGTGGGTGGGTGGG (ssDNA) [R1T]
IC50 ([1]; hairpin + G4): 14 nM

CGCCTGATTAGCGATACTCAGGCGTTTTGGGTGGGTGGGTGGG (ssDNA) [L3]
IC50 ([1]; hairpin + G4, T4 connector): 13 nM

B2: RT6 (ssDNA)
DNA: ATCCGCCTGATTAGCGATACTCAGGCGTTAGGGAAGGGCGTCGAAAGCAGGGTGGGACTTGAGCAAAATCACCTGCAGGG
IC50 ([1]; hairpin + G4): 36 nM

CGCCTGATTAGCGATACTCAGGCGTTTTTTTTGGGTGGGTGGGTGGG (ssDNA) [L4]
IC50 ([1]; hairpin + G4, T8 connector): 28 nM

B3: RT6-B (Vor) (ssDNA)
DNA: CGCCTGATTAGCGATACTCAGGCGTTAGGGAAGGGCGTCGAAAGCAGGGTGGG
IC50 ([1]; hairpin + G4): 5.7 nM

GGGTGGGTGGGTTCGCCTGATTAGCGATACTCAGGCGTTGGG (ssDNA) [Ecut]
IC50 [1, 4]: 99 nM

GGGTGGGTTGCGGACTCATAGCGATTAGTCCGCTTGGGTGGG (ssDNA) [Acutrev]
IC50 [1, 4]: 33 nM

CCGGACTCATAGCGATTAGTCCGGTTGGGTGGGTGGGTGGG (ssDNA) [Srevstem]
IC50 ([2]; hairpin + G4): 26 nM

B4: RT6-A (ssDNA)
DNA: ATCCGCCTGATTAGCGATACTCAGGCGTTAGGGAAGGGTAGCGATACAGGGTGGG
IC50 ([1]; hairpin + G4): 16 nM

CGCCTGATTAGCGATACTCAGGCGTTGGGTTGGGTTGGGTTGGG (ssDNA) [R2T]
IC50 ([2]; hairpin + G4): 13 nM

CGGATTAGCGATACTCCGTTGGGTGGGTGGGTGGG (ssDNA) [S2]
IC50 ([2]; hairpin + G4): 110 nM

B5: R8T (ssDNA)
DNA: CGCCTGATTAGCGATACTCAGGCGTTGGGTTTTTTTTGGGTTTTTTTTGGGTTTTTTTTGGG
IC50 ([2]; hairpin + G4): 20 nM

B6: L10 (ssDNA)
DNA: CGCCTGATTAGCGATACTCAGGCGTTTTTTTTTTTTTTTTGGGTGGGTGGGTGGG
IC50 [3]: 120 nM
